# Legend:
# Test in all cases: cell-based or functional assay
# 92BR020 D325A (HIV-1) = target: 92BR020 D325A (HIV-1)
# [1] = target: 92BR020 N136A + N156A + N301A (HIV-1)
# [2] = target: 92BR020 N136A + N332A (HIV-1)
# 92BR020 N301A (HIV-1) = target: 92BR020 N301A (HIV-1)
# [3] = target: 92BR020 N301A + N332A (HIV-1)
# 92BR020 N332A (HIV-1) = target: 92BR020 N332A (HIV-1)
# [4] = target: BG505 (T332N) N156A (HIV-1)
# [5] = target: BG505 (T332N) N295A (HIV-1)
# [6] = target: BG505 (T332N) N392A (HIV-1)
# [7] = target: HIV-1 Env of pseudovirus 0815.v3.c3 (HIV-1)
# [8] = target: HIV-1 Env of pseudovirus 1012_11_TC21_3257 (HIV-1)
# [9] = target: HIV-1 Env of pseudovirus 1054_07_TC4_1499 (HIV-1)
# [10] = target: HIV-1 Env of pseudovirus 191955_A11 (HIV-1)
# [11] = target: HIV-1 Env of pseudovirus 3365.v2.c2 (HIV-1)
# [12] = target: HIV-1 Env of pseudovirus 3817.v2.c59 (HIV-1)
# [13] = target: HIV-1 Env of pseudovirus 6240_08_TA5_4622 (HIV-1)
# [14] = target: HIV-1 Env of pseudovirus 6244_13_B5_4576 (HIV-1)
# [15] = target: HIV-1 Env of pseudovirus 6535.3 (HIV-1)
# [16] = target: HIV-1 Env of pseudovirus 6540.v4.c1 (HIV-1)
# [17] = target: HIV-1 Env of pseudovirus 6545.v4.c1 (HIV-1)
# [18] = target: HIV-1 Env of pseudovirus 6952.v1.c20 (HIV-1)
# [19] = target: HIV-1 Env of pseudovirus 9004SS_A3_4 (HIV-1)
# [20] = target: HIV-1 Env of pseudovirus BJOX028000.10.3 (HIV-1)
# [21] = target: HIV-1 Env of pseudovirus CNE17 (HIV-1)
# [22] = target: HIV-1 Env of pseudovirus CNE19 (HIV-1)
# [23] = target: HIV-1 Env of pseudovirus CNE20 (HIV-1)
# [24] = target: HIV-1 Env of pseudovirus CNE21 (HIV-1)
# [25] = target: HIV-1 Env of pseudovirus Ce0682_E4 (HIV-1)
# [26] = target: HIV-1 Env of pseudovirus Ce1086_B2 (HIV-1)
# [27] = target: HIV-1 Env of pseudovirus Ce704809221_1B3 (HIV-1)
# [28] = target: HIV-1 Env of pseudovirus P1981_C5_3 (HIV-1)
# [29] = target: HIV-1 Env of pseudovirus Q461.e2 (HIV-1)
# [30] = target: HIV-1 Env of pseudovirus Q842.d12 (HIV-1)
# [31] = target: HIV-1 Env of pseudovirus REJO4541.67 (HIV-1)
# [32] = target: HIV-1 Env of pseudovirus T251-18 (HIV-1)
# [33] = target: HIV-1 Env of pseudovirus TRJO4551.58 (HIV-1)
# [34] = target: HIV-1 Env of pseudovirus X1254_c3 (HIV-1)
# [35] = target: HIV-1 Env of pseudovirus X1632_S2_B10 (HIV-1)
# [36] = target: HIV-1 Env of pseudovirus X2131_C1_B5 (HIV-1)
# [37] = target: HIV-1 Env of pseudovirus ZM197M.PB7 (HIV-1)
# [38] = target: HIV-1 Env of pseudovirus ZM53M.PB12 (HIV-1)
# JR-CSF G324A (HIV-1) = JR-CSF G324A (HIV-1) (UniProt P20871)
# JR-CSF N332A (HIV-1) = JR-CSF N332A (HIV-1) (UniProt P20871)
substance,measurement,setting,value
354BG8 (antibody),IC50 in TZM-bl assay,92BR020 D325A (HIV-1),0.006 µg/mL
same,IC50 in TZM-bl assay,[1],0.001 µg/mL
same,IC50 in TZM-bl assay,[2],> 50 µg/mL
same,IC50 in TZM-bl assay,92BR020 N301A (HIV-1),0.009 µg/mL
same,IC50 in TZM-bl assay,[3],> 50 µg/mL
same,IC50 in TZM-bl assay,92BR020 N332A (HIV-1),> 50 µg/mL
same,IC50 in TZM-bl assay,[4],0.008 µg/mL
same,IC50 in TZM-bl assay,[5],0.009 µg/mL
same,IC50 in TZM-bl assay,[6],0.005 µg/mL
same,IC50 in TZM-bl assay,[7],0.043 µg/mL
same,IC80 in TZM-bl assay,[7],0.197 µg/mL
same,IC50 in TZM-bl assay,[8],0.011 µg/mL
same,IC80 in TZM-bl assay,[8],0.047 µg/mL
same,IC50 in TZM-bl assay,[9],0.048 µg/mL
same,IC80 in TZM-bl assay,[9],0.222 µg/mL
same,IC50 in TZM-bl assay,[10],> 10 µg/mL
same,IC80 in TZM-bl assay,[10],> 10 µg/mL
same,IC50 in TZM-bl assay,[11],0.057 µg/mL
same,IC80 in TZM-bl assay,[11],0.2 µg/mL
same,IC50 in TZM-bl assay,[12],0.706 µg/mL
same,IC80 in TZM-bl assay,[12],4.49 µg/mL
same,IC50 in TZM-bl assay,[13],0.038 µg/mL
same,IC80 in TZM-bl assay,[13],0.131 µg/mL
same,IC50 in TZM-bl assay,[14],0.091 µg/mL
same,IC80 in TZM-bl assay,[14],0.38 µg/mL
same,IC50 in TZM-bl assay,[15],0.007 µg/mL
same,IC80 in TZM-bl assay,[15],0.022 µg/mL
same,IC50 in TZM-bl assay,[16],> 10 µg/mL
same,IC80 in TZM-bl assay,[16],> 10 µg/mL
same,IC50 in TZM-bl assay,[17],> 10 µg/mL
same,IC80 in TZM-bl assay,[17],> 10 µg/mL
same,IC50 in TZM-bl assay,[18],0.023 µg/mL
same,IC80 in TZM-bl assay,[18],0.086 µg/mL
same,IC50 in TZM-bl assay,[19],0.012 µg/mL
same,IC80 in TZM-bl assay,[19],0.032 µg/mL
same,IC50 in TZM-bl assay,[20],> 10 µg/mL
same,IC80 in TZM-bl assay,[20],> 10 µg/mL
same,IC50 in TZM-bl assay,[21],1.18 µg/mL
same,IC80 in TZM-bl assay,[21],4.85 µg/mL
same,IC50 in TZM-bl assay,[22],0.075 µg/mL
same,IC80 in TZM-bl assay,[22],> 10 µg/mL
same,IC50 in TZM-bl assay,[23],0.002 µg/mL
same,IC80 in TZM-bl assay,[23],0.005 µg/mL
same,IC50 in TZM-bl assay,[24],0.047 µg/mL
same,IC80 in TZM-bl assay,[24],0.124 µg/mL
same,IC50 in TZM-bl assay,[25],> 10 µg/mL
same,IC80 in TZM-bl assay,[25],> 10 µg/mL
same,IC50 in TZM-bl assay,[26],> 10 µg/mL
same,IC80 in TZM-bl assay,[26],> 10 µg/mL
same,IC50 in TZM-bl assay,[27],0.084 µg/mL
same,IC80 in TZM-bl assay,[27],0.395 µg/mL
same,IC50 in TZM-bl assay,[28],0.004 µg/mL
same,IC80 in TZM-bl assay,[28],0.013 µg/mL
same,IC50 in TZM-bl assay,[29],> 10 µg/mL
same,IC80 in TZM-bl assay,[29],> 10 µg/mL
same,IC50 in TZM-bl assay,[30],> 10 µg/mL
same,IC80 in TZM-bl assay,[30],> 10 µg/mL
same,IC50 in TZM-bl assay,[31],> 10 µg/mL
same,IC80 in TZM-bl assay,[31],> 10 µg/mL
same,IC50 in TZM-bl assay,[32],0.399 µg/mL
same,IC80 in TZM-bl assay,[32],2.29 µg/mL
same,IC50 in TZM-bl assay,[33],0.057 µg/mL
same,IC80 in TZM-bl assay,[33],0.218 µg/mL
same,IC50 in TZM-bl assay,[34],0.063 µg/mL
same,IC80 in TZM-bl assay,[34],0.239 µg/mL
same,IC50 in TZM-bl assay,[35],> 10 µg/mL
same,IC80 in TZM-bl assay,[35],> 10 µg/mL
same,IC50 in TZM-bl assay,[36],0.014 µg/mL
same,IC80 in TZM-bl assay,[36],0.056 µg/mL
same,IC50 in TZM-bl assay,[37],> 10 µg/mL
same,IC80 in TZM-bl assay,[37],> 10 µg/mL
same,IC50 in TZM-bl assay,[38],> 10 µg/mL
same,IC80 in TZM-bl assay,[38],> 10 µg/mL
same,IC50 in TZM-bl assay,JR-CSF G324A (HIV-1),0.005 µg/mL
same,IC50 in TZM-bl assay,JR-CSF N332A (HIV-1),> 50 µg/mL
BG18 IgG (354BG18) (antibody),IC50 in TZM-bl assay,[7],0.16 µg/mL
same,IC80 in TZM-bl assay,[7],5.96 µg/mL
same,IC50 in TZM-bl assay,[8],0.003 µg/mL
same,IC80 in TZM-bl assay,[8],0.012 µg/mL
same,IC50 in TZM-bl assay,[9],0.005 µg/mL
same,IC80 in TZM-bl assay,[9],0.022 µg/mL
same,IC50 in TZM-bl assay,[10],> 30 µg/mL
same,IC80 in TZM-bl assay,[10],> 30 µg/mL
same,IC50 in TZM-bl assay,[11],0.013 µg/mL
same,IC80 in TZM-bl assay,[11],0.037 µg/mL
same,IC50 in TZM-bl assay,[12],0.219 µg/mL
same,IC80 in TZM-bl assay,[12],1.06 µg/mL
same,IC50 in TZM-bl assay,[13],0.003 µg/mL
same,IC80 in TZM-bl assay,[13],0.01 µg/mL
same,IC50 in TZM-bl assay,[14],0.011 µg/mL
same,IC80 in TZM-bl assay,[14],0.049 µg/mL
same,IC80 in TZM-bl assay,[15],0.005 µg/mL
same,IC50 in TZM-bl assay,[16],28.2 µg/mL
same,IC80 in TZM-bl assay,[16],> 30 µg/mL
same,IC50 in TZM-bl assay,[17],> 30 µg/mL
same,IC80 in TZM-bl assay,[17],> 30 µg/mL
same,IC50 in TZM-bl assay,[18],0.005 µg/mL
same,IC80 in TZM-bl assay,[18],0.011 µg/mL
same,IC50 in TZM-bl assay,[19],0.005 µg/mL
same,IC80 in TZM-bl assay,[19],0.056 µg/mL
same,IC50 in TZM-bl assay,[20],0.474 µg/mL
same,IC80 in TZM-bl assay,[20],14.9 µg/mL
same,IC50 in TZM-bl assay,[21],0.02 µg/mL
same,IC80 in TZM-bl assay,[21],0.109 µg/mL
same,IC50 in TZM-bl assay,[22],> 30 µg/mL
same,IC80 in TZM-bl assay,[22],> 30 µg/mL
same,IC50 in TZM-bl assay,[23],0.002 µg/mL
same,IC80 in TZM-bl assay,[23],0.006 µg/mL
same,IC50 in TZM-bl assay,[24],0.002 µg/mL
same,IC80 in TZM-bl assay,[24],0.007 µg/mL
same,IC50 in TZM-bl assay,[25],> 30 µg/mL
same,IC80 in TZM-bl assay,[25],> 30 µg/mL
same,IC50 in TZM-bl assay,[26],> 30 µg/mL
same,IC80 in TZM-bl assay,[26],> 30 µg/mL
same,IC50 in TZM-bl assay,[27],4.39 µg/mL
same,IC80 in TZM-bl assay,[27],> 30 µg/mL
same,IC50 in TZM-bl assay,[28],0.006 µg/mL
same,IC80 in TZM-bl assay,[28],0.019 µg/mL
same,IC50 in TZM-bl assay,[29],> 30 µg/mL
same,IC80 in TZM-bl assay,[29],> 30 µg/mL
same,IC50 in TZM-bl assay,[30],14 µg/mL
same,IC80 in TZM-bl assay,[30],> 30 µg/mL
same,IC50 in TZM-bl assay,[31],> 30 µg/mL
same,IC80 in TZM-bl assay,[31],> 30 µg/mL
same,IC50 in TZM-bl assay,[32],0.086 µg/mL
same,IC80 in TZM-bl assay,[32],0.328 µg/mL
same,IC50 in TZM-bl assay,[33],3.34 µg/mL
same,IC80 in TZM-bl assay,[33],26.9 µg/mL
same,IC50 in TZM-bl assay,[34],0.004 µg/mL
same,IC80 in TZM-bl assay,[34],0.012 µg/mL
same,IC50 in TZM-bl assay,[35],> 30 µg/mL
same,IC80 in TZM-bl assay,[35],> 30 µg/mL
same,IC50 in TZM-bl assay,[36],0.002 µg/mL
same,IC80 in TZM-bl assay,[36],0.008 µg/mL
same,IC50 in TZM-bl assay,[37],> 30 µg/mL
same,IC80 in TZM-bl assay,[37],> 30 µg/mL
same,IC50 in TZM-bl assay,[38],> 30 µg/mL
same,IC80 in TZM-bl assay,[38],> 30 µg/mL
